This note sets out measurements from doi:10.1101/2021.06.02.446795.

The target in the test is HMPV nucleoprotein N (strain CAN97-83), full-length, N-RNA rings (human metapneumovirus (strain CAN97-83)). As to the kind of experiment: SEC.

One may read the stoichiometry N as a count of units in the complex or per binding partner. Consider “HMPV nucleoprotein N (strain CAN97-83), full-length, N-RNA rings (natural protein)”, for which the stoichiometry N was found to be 10.
